{"source": "patent US10175123B2", "about": "“MEMS-based calorimeter, fabrication, and use thereof” (THE TRUSTEES OF COLUMBIA UNIVERSITY IN THE CITY OF NEW YORK, priority 2013, dated 2019)", "key": {"[1]": {"experiment": "MEMS AC-DSC measurement of lysozyme unfolding", "assay_type": "physicochemical", "conditions": "10 and 20 mg/mL, 0.1 M Glycine-HCl pH 2.5, 25 to 82 °C at 5 °C/min, AC modulation 1, 5 or 10 Hz; depends on modulation frequency", "source_text": "The MEMS AC-DSC device calibrated above was used to measure the thermal behavior of protein unfolding.\nMeanwhile, the specific heat capacity (c) of the protein as a function of temperature can be computed from the thermopile voltage amplitude (FIG. 19)."}, "[2]": {"experiment": "MEMS DSC measurement of lysozyme unfolding", "assay_type": "physicochemical", "conditions": "1 to 20 mg/mL in 0.1 M Glycine-HCl buffer pH 2.5, scan 25-75 °C at 5 °C/min", "procedure": "DSC measurements of biomolecules were performed using the calibrated microdevice, whose sample chamber and reference chamber were respectively filled with biological sample and buffer solutions, scanned in a range of temperature of interest. The temperature sensors were used to monitor the temperatures of calorimetric chambers while the device output was obtained in real time to compute the biomolecular thermal power. Before DSC measurements, the baseline in device output, i.e., the thermopile output voltage in the absence of a differential power input, during temperature scanning was measured with both calorimetric chambers filled with buffer solutions. […]\nThe thermopile output voltage as a function of temperature, corrected by baseline subtraction, was measured at varying protein concentrations ranging from 1 to 20 mg/mL (FIG. 10).\nDespite the amplitude difference of device output at various protein concentrations, they all yielded consistent estimates of the thermodynamic properties associated with the protein unfolding process. In particular, the profile shape of c was generally not influenced by protein concentration, and ΔH was consistently determined to be approximately 450 kJ/mol with a corresponding melting temperature Tm of approximately 55° C."}, "[3]": {"conditions": "typical range of published data; cited from earlier work"}, "[4]": {"experiment": "Polymer MEMS DSC measurement of lysozyme unfolding", "assay_type": "physicochemical", "conditions": "0.1 M Glycine-HCl buffer pH 2.5, 5 K/min, all concentrations except 1 mg/mL", "procedure": "Before DSC measurements, the baseline, i.e., the thermopile output voltage in the absence of a differential power input, during temperature scanning in the range of interest was recorded with both calorimetric channels filled with buffer solutions. After which, characterizations of biomolecules were performed with the calorimetric channels, respectively filled with a biological sample and a buffer solutions, and scanned in the same range with pre-specified rate. The temperature sensors were used to monitor the temperatures of calorimetric channels, while the device output was obtained in real time to compute the biomolecular thermal power.\nThe calibrated polymer MEMS DSC device was then exploited to characterize protein unfolding. Glycine-HCl buffer (0.1 M, pH 2.5) was filled in both sample and reference calorimetric channels while the device was scanned at a constant rate of 5 K/min. […]\nThe thermopile differential voltage as a function of temperature, corrected by baseline subtraction, was measured at varying concentrations ranging from 1 to 20 mg/mL (FIG. 42). […] Furthermore, the differential heat capacity as a function of temperature and the calibrated device sensitivity can be calculated from the device voltage output by Equation 7. The sample heat capacity as a function of temperature was determined by: […]"}}}
{"substance": "lysozyme: targeted sample biomolecule, purchased from Sigma Aldrich (lyophilized powder, protein ≥90%)", "values": [{"measurement": "apparent melting temperature (Tm)", "setting": "[1]", "result": "55-58 °C"}, {"measurement": "melting temperature Tm", "setting": "[2]", "result": "approximately 55 °C"}, {"measurement": "total change of molar enthalpy (ΔH) of unfolding", "setting": "[2]", "result": "approximately 450 kJ/mol"}, {"measurement": "Tm, published data", "setting": "[3]", "result": "55-58.9 °C"}, {"measurement": "ΔH of unfolding, published data", "setting": "[3]", "result": "90.1 to 105", "unit": "kcal/mol"}, {"measurement": "melting temperature Tm", "setting": "[4]", "result": 54.71, "unit": "°C"}, {"measurement": "total enthalpy change per mole (ΔH) of unfolding", "setting": "[4]", "result": 101, "unit": "kcal/mol"}]}
